# What was measured:
# 14-3-3τ = 14-3-3τ (UniProt P27348); test: GST pull-down from co-transfected cells; conditions: reference: GST-HIP-55 wild type; sites S269,T291
# MAP4K1 = MAP4K1 (UniProt Q92918); test: GST pull-down from transfected cells; conditions: reference: HIP-55 wild type; sites S269,T291
Substance,binding against the reference (14-3-3τ),binding against the reference (MAP4K1)
HIP-55 (from UniProt Q9UJU6) GST-HIP-55 S269A/T291A (HIP-55AA),lost,–
HIP-55 (from UniProt Q9UJU6) HIP-55 S269A/T291A (HIP-55AA),–,weaker

# Source: article PMC9984488
